Test results published in US20250002585A1 (CENTESSA PHARMACEUTICALS UK, published 2025).

Target: T1, mouse CD47 (SPR analyte) (mouse, UniProt Q61735 19-140, limits assumed)
T1 sequence (looked up): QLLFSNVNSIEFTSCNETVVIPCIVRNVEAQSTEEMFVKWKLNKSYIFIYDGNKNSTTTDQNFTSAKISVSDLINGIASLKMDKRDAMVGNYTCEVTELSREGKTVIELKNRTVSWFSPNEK
Assay: SPR (Biacore T200), 25 C; Fab captured by anti-human Fab, mouse CD47 as analyte; steady state
Description: HBS-P+ supplemented with 0.1% BSA was used as running buffer as well as for ligand and analyte dilutions. […] Ligand was captured at a flow rate of 10 μl/min to give an immobilisation level (RL) of ˜ 60 RU. The surface was then allowed to stabilise. Multi-cycle kinetic data was obtained using either human or mouse CD47 as the analyte injected at a flow rate of 30 μl/min. […] For each concentration, the association phases were monitored for 180 seconds, and the dissociation phase was measured for 300 seconds. Regeneration of the sensor chip surface was conducted between cycles using 10 mM glycine pH 2.1. The signal from the reference channel Fcl (no ligand captured) was subtracted from that of Fc2-4 to correct for bulk effect and differences in non-specific binding to a reference surface. The signal from each CD47 blank run (ligand captured but no antigen) was subtracted to correct for differences in surface stability. […] Mouse CD47 binding was analysed using steady state analysis.

Kd: 165 nM
B1: positive control anti-CD47 Fab (recombinant Fab using the variable domain sequences used in LB101) (Fab, V domains shown)
VH: QVQLVQSGAEVKKPGESLKISCKGSGYTFTNYYIFWVRQMPGKGLEWMGIINPVDGDTNYNPSFQGQVTISADKSISTAYLQWSSLKASDTAMYYCARGGYTMDRWGQGTLVTVSS
VL: DIVMTQSPLSLPVTPGEPASISCRSSQSLLHSNGYNYLHWYLQKPGQSPQLLIYKVSNRFSGVPDRFSGSGSGTDFTLKISRVEAEDVGVYYCFQNTHTPRTFGGGTKVEIK
